Measured values taken from patent publication US20220363748A1 (AstraZeneca / MedImmune, published 2022).
Substitutions are numbered along the chain they refer to. Each block holds one binder with its values, some of them ahead of it.

What was measured:
[1] = molecular target: T1, ST2S-Fc-His6 fusion protein (human, UniProt Q01638 19-328); test: depletion of remaining reduced IL-33 from the oxIL-33 preparation, in solution, then size exclusion
T1 construct: CD33 signal peptide used for secretion, not part of the protein; also called soluble human ST2S extracellular domain fused to human IgG1 Fc-His6; human ST2 ECD
T1 sequence: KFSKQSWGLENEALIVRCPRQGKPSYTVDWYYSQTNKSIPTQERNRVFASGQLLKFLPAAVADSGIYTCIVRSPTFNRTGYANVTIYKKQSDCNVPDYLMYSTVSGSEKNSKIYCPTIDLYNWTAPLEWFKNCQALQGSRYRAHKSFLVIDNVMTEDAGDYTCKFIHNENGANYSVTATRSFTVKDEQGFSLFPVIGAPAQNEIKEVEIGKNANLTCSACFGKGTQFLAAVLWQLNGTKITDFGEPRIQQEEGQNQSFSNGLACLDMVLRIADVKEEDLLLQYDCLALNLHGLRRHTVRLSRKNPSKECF

[2] = molecular target: T2, RAGE-Fc (R&D Systems #1145-RG) (UniProt Q15109 24-344); test: ELISA: biotinylated antigen on streptavidin plate, RAGE-Fc, detection with anti-human IgG HRP
T2 construct: Bought reagent; not shown: Fc part of the bought fusion; detected with anti-human IgG
T2 sequence (Q15109 24-344 limits assumed): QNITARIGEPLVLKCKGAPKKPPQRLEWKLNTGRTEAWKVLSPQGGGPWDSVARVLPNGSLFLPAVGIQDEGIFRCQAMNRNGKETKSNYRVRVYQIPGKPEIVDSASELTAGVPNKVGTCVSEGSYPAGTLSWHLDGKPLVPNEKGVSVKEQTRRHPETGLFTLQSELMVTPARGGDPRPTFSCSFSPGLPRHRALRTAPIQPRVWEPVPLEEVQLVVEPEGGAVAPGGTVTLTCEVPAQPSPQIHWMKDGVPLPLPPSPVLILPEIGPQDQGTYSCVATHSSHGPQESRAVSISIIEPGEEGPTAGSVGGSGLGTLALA
Procedure: (§1) Plates were washed 3×with 200 μl PBS-T (PBS +1% (v/v) Tween-20) and blocked with 300 μl/well blocking buffer (PBS with 1% BSA (Sigma, A9576)) for 1 hour. […] Plates were washed with 200 μl PBS-T three times. […] Plates were washed 3×with PBS-T and developed with TMB, 100 μl/well (Sigma, T0440). The reaction was quenched with 50 μl/well 0.1 M H2504. Absorbance was read at 450nm on the Cytation Gen5 or similar equipment.

[3] = molecular target: T3, EGFR-Fc (R&D Systems #344-ER-050) (UniProt P00533 25-645); test: ELISA: biotinylated antigen on streptavidin plate, EGFR-Fc, detection with anti-human IgG HRP
T3 construct: Bought reagent; not shown: Fc part of the bought fusion; detected with anti-human IgG
Procedure: as §1

[4] = molecular target: T2, RAGE-Fc (R&D Systems #1145-RG); test: ELISA: biotinylated antigen on streptavidin plate, RAGE-Fc at 10 µg/mL, detection with anti-human IgG HRP
Procedure: as §1

[5] = molecular target: T3, EGFR-Fc (R&D Systems #344-ER-050); test: ELISA: biotinylated antigen on streptavidin plate, EGFR-Fc with or without untagged RAGE, detection with anti-human IgG HRP
Procedure: as §1

[6] = molecular target: T2, RAGE-Fc (R&D Systems #1145-RG); test: ELISA: biotinylated oxIL-33 on streptavidin plate, RAGE-Fc 10 µg/mL, anti-human IgG HRP
Procedure: as §1

binding result [1]: binds
B1: Untagged IL33-01 (reduced IL-33) (ligand)
chain: SITGISPITEYLASLSTYNDQSITFALEDESYEIYVEDLKKDEKKDKVLLSYYESQHPSNESGDGVDGKMLMVTLSPTKDFWLHANNKEHSVELHKCEKPLPDQAFFVLHNMHSNCVSFECKTDPGVFIGVKDNHLALIKVDSSENLCTENILFKLSET
notes: also called redIL-33; wild type IL-33

binding result [2]: no binding
B2: Biotinylated EGF (Thermo) (ligand, UniProt P01133 971-1023, looked up)
chain: NSDSECPLSHDGYCLHDGVCMYIEALDKYACNCVVGYIGERCQYRDLKWWELR
modifications: biotinylated (bought so)

binding result [3]: no binding | binding result [4]: binds
B3: HMGB1 (R&D systems 1690-HMB-050), biotinylated (ligand, UniProt P09429 1-215, looked up)
chain: MGKGDPKKPRGKMSSYAFFVQTCREEHKKKHPDASVNFSEFSKKCSERWKTMSAKEKGKFEDMAKADKARYEREMKTYIPPKGETKKKFKDPNAPKRPPSAFFLFCSEYRPKIKGEHPGLSIGDVAKKLGEMWNNTAADDKQPYEKKAAKLKEKYEKDIAAYRAKGKPDAAKKGVVKAEKSKKKKEEEEDEEDEEDEEEEEDEEDEDEEEDDDDE
modifications: biotinylated via free amines (EZ link Sulfo-NHS-LC-Biotin)

binding result [2]: no binding | binding result [5]: no binding
B4: IL-33[C->S] (ligand)
cytokine: MHHHHHHHHHHAAGLNDIFEAQKIEWHEAAIEGRSITGISPITEYLASLSTYNDQSITFALEDESYEIYVEDLKKDEKKDKVLLSYYESQHPSNESGDGVDGKMLMVTLSPTKDFWLHANNKEHSVELHKSEKPLPDQAFFVLHNMHSNSVSFESKTDPGVFIGVKDNHLALIKVDSSENLSTENILFKLSET
modifications: biotinylated at the Avitag with BirA
notes: also called IL33-16

binding result [6]: binds
B5: Avitag_IL-33-01 (oxidised IL-33), biotinylated (ligand)
chain: B4 cytokine with S131C, S150C, S155C, S182C
modifications: biotinylated on the Avitag with BirA; oxidised (disulphide bonded) form of IL-33
notes: also called oxIL-33; oxidised IL-33-01
